This passage reports binding result and Kd results from paper PMC10527347 (Journal of molecular biology, 2023).

Assay [1] has as its target T1, Hsp90Ec N350C (E. coli, UniProt P0A6Z3 1-624, N350C). The experiment in a line: cross-linking.
Assay [2] addresses T2, Hsp90Ec N347C (E. coli, UniProt P0A6Z3 1-624, N347C). In words: cross-linking.
For assay [3], the target named is T3, Hsp90Ec K199C (E. coli, UniProt P0A6Z3 1-624, K199C). The experiment in a line: cross-linking.
The target in assay [4] is T2, Hsp90Ec N347C. In words: cross-linking. The source holds these as a separate data set.
A further assay addresses Hsp90Ec L493C (E. coli, UniProt P0A6Z3 1-624, L493C). In words: pull-down.
Another assay concerns the target Hsp90Ec K45C (E. coli, UniProt P0A6Z3 1-624, K45C). The experiment in a line: pull-down.
A further assay addresses Hsp90Ec K71C (E. coli, UniProt P0A6Z3 1-624, K71C). The experiment in a line: pull-down.
The target of a further assay is Hsp90Ec K99C (E. coli, UniProt P0A6Z3 1-624, K99C). In words: pull-down.
A further assay has as its target Hsp90Ec K103C (E. coli, UniProt P0A6Z3 1-624, K103C). The experiment in a line: pull-down.
The target of assay [5] is T3, Hsp90Ec K199C. In words: pull-down.
In the next assay the target is Hsp90Ec K492C (E. coli, UniProt P0A6Z3 1-624, K492C). The experiment in a line: pull-down.
The target of another assay is Hsp90Ec K502C (E. coli, UniProt P0A6Z3 1-624, K502C). The experiment in a line: pull-down.
For assay [6], the target named is T2, Hsp90Ec N347C. In words: pull-down.
The target in another assay is Hsp90Ec K560C (E. coli, UniProt P0A6Z3 1-624, K560C). The experiment in a line: pull-down.
Assay [7] concerns the target T1, Hsp90Ec N350C. In words: pull-down.
The next assay deals with Hsp90Ec K354C (E. coli, UniProt P0A6Z3 1-624, K354C). The experiment in a line: pull-down.
For another assay, the target named is Hsp90Ec Q358C (E. coli, UniProt P0A6Z3 1-624, Q358C). In words: pull-down.
The target in a further assay is Hsp90Ec wild-type (E. coli, UniProt P0A6Z3 1-624). The experiment in a line: BLI.

B1: CbpA J-domain A44C (domain or fragment, E. coli, UniProt P36659 1-78, looked up)
chain: MELKDYYAIMGVKPTDDLKTIKTAYRRLARKYHPDVSKEPDAECRFKEVAEAWEVLSDEQRRAEYDQMWQHRNDPQFN
In the case of B1, the binding result with Hsp90Ec N350C [1] and with Hsp90Ec N347C [2] was “binds” in each case.

B2: wild type CbpA J-domain fragment (residues 1-78) (domain or fragment, E. coli, UniProt P36659 1-78, looked up)
chain: MELKDYYAIMGVKPTDDLKTIKTAYRRLARKYHPDVSKEPDAEARFKEVAEAWEVLSDEQRRAEYDQMWQHRNDPQFN
For B2, the binding result with Hsp90Ec K199C [3] and with Hsp90Ec N347C [4] was “binds” throughout.

B3: biotin-labeled CbpA (natural protein, E. coli, UniProt P36659 1-306, looked up)
chain: MELKDYYAIMGVKPTDDLKTIKTAYRRLARKYHPDVSKEPDAEARFKEVAEAWEVLSDEQRRAEYDQMWQHRNDPQFNRQFHHGDGQSFNAEDFDDIFSSIFGQHARQSRQRPATRGHDIEIEVAVFLEETLTEHKRTISYNLPVYNAFGMIEQEIPKTLNVKIPAGVGNGQRIRLKGQGTPGENGGPNGDLWLVIHIAPHPLFDIVGQDLEIVVPVSPWEAALGAKVTVPTLKESILLTIPPGSQAGQRLRVKGKGLVSKKQTGDLYAVLKIVMPPKPDENTAALWQQLADAQSSFDPRKDWGKA
modifications: biotin label (site not stated)
Regarding B3, the binding result in the assay with Hsp90Ec L493C, with Hsp90Ec K45C, in the assay with Hsp90Ec K71C, with Hsp90Ec K99C, with Hsp90Ec K103C and in the assay with Hsp90Ec K199C [5] was “binds” in each case. Also, the binding result in the assay with Hsp90Ec K492C, with Hsp90Ec K502C, with Hsp90Ec N347C [6], in the assay with Hsp90Ec K560C, with Hsp90Ec N350C [7] and with Hsp90Ec K354C was “binds” in each case. In addition, the binding result with Hsp90Ec Q358C was “binds”. In addition, the Kd with Hsp90Ec wild-type was 11 ± 0.9 µM.
